This note sets out measurements from patent US20210130454A1 (BLUEFIN BIOMEDICINE, published 2021).

Test [1] deals with T1, human SEZ6L on cells (293-SEZ6L) (human, UniProt Q9BYH1 29-1024).
T1 construct: whole, on cells; also called Seizure 6-like Protein
T1 sequence (looked up): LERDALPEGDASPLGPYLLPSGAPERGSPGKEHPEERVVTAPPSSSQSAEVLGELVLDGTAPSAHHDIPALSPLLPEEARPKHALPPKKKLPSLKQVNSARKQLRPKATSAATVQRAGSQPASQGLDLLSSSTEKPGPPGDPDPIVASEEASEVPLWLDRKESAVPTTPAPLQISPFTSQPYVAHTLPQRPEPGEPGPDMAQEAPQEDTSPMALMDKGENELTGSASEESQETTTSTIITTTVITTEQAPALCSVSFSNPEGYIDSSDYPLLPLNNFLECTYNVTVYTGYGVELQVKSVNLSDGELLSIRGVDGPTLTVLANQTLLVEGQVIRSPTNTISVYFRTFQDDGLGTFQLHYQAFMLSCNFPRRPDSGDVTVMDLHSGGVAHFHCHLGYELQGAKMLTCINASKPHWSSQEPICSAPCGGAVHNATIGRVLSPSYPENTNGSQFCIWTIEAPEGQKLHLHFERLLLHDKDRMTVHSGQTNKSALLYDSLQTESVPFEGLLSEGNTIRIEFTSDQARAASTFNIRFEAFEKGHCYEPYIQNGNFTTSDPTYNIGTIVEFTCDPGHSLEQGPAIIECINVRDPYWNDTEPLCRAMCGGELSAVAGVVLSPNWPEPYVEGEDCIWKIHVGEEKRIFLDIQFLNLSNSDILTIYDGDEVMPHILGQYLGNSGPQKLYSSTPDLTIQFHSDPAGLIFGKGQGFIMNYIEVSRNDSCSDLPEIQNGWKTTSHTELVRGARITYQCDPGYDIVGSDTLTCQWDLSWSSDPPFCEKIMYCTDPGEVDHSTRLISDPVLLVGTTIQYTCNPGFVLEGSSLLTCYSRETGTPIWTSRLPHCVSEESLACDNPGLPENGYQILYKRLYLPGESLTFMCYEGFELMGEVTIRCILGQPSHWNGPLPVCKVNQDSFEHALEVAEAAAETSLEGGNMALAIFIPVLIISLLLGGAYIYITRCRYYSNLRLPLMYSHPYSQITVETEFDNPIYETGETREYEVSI
The experiment in a line: flow cytometry on live 293-SEZ6L cells, Alexa Fluor 488 anti-human IgG secondary [continued), panel L]. A general note: Flow cytometry measures light scatter and fluorescence of single cells or particles in a stream.

For test [2], the target named is T2, recombinant cynomolgus monkey SEZ6L2 (cynomolgus monkey, UniProt G7Q0V6 28-844).
T2 construct: The construct is not described; also called cynomolgus monkey SEZL2
Briefly: BLI (ForteBio Octet Red96), antibody on Protein A biosensors, recombinant target protein in solution. (In general: BLI is a label-free optical method that tracks binding on a fibre tip over time.)

The target in test [3] is T3, recombinant human SEZ6L2 (extracellular portion of human SEZ6L2 fused to six C-terminal histidine-tag repeats) (human, UniProt Q6UXD5 28-844).
T3 construct: also called SEZ6L2-his; recombinant SEZ6L2
T3 sequence (Q6UXD5 other isoform, or with tags, fused parts or gaps): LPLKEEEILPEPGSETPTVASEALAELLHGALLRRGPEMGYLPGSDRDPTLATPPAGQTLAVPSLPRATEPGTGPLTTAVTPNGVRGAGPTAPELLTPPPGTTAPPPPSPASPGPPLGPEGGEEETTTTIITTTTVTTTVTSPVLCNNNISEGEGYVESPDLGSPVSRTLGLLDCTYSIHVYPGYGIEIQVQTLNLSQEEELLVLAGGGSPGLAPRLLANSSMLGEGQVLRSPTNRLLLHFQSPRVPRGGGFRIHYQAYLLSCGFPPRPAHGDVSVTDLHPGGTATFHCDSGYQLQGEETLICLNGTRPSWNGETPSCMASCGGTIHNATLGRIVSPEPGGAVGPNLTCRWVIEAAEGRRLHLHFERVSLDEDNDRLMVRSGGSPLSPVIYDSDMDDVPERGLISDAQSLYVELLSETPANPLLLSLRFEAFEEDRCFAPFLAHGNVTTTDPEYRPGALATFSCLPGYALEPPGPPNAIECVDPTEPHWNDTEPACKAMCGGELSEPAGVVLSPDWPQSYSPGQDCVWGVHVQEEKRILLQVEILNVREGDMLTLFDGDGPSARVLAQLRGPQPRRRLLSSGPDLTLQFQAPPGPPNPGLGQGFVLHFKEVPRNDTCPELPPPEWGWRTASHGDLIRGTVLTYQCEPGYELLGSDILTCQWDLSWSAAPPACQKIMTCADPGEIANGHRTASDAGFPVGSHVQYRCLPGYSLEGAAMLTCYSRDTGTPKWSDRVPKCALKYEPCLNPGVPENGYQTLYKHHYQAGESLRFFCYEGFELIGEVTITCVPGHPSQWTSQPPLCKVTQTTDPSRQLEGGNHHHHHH
Described as above.

Test [4] has as its target T4, human SEZ6 on cells (293-SEZ6) (human, UniProt Q53EL9 20-994).
T4 construct: whole, on cells; also called Seizure Protein 6 Homolog
T4 sequence (looked up): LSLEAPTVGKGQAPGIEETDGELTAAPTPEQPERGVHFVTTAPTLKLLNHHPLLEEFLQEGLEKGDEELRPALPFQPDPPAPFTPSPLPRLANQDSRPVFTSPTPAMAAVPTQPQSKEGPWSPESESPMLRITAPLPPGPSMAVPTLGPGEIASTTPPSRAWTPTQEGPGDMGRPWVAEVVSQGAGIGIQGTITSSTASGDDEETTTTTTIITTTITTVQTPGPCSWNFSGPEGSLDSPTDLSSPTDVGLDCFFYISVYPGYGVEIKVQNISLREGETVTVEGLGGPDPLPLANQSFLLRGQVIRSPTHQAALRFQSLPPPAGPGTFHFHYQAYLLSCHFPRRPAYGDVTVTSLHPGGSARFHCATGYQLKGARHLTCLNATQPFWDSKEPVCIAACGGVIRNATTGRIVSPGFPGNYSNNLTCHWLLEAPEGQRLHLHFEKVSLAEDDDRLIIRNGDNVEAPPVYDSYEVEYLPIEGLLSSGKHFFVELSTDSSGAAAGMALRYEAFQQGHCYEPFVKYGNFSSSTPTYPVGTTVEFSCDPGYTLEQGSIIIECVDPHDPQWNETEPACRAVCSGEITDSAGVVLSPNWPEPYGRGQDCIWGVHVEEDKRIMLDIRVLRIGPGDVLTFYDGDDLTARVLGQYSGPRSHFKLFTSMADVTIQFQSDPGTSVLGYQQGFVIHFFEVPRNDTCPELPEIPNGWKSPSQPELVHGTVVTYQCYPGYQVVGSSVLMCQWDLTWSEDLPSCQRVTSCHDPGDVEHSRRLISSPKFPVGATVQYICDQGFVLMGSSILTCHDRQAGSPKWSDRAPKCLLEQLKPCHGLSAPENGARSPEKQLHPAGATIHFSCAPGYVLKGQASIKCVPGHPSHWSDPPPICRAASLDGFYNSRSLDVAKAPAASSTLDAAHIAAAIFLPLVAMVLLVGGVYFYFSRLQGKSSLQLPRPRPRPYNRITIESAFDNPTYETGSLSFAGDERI
The experiment in a line: flow cytometry on live 293-SEZ6 cells, Alexa Fluor 488 anti-human IgG secondary [continued), panel L].

In test [5] the target is T1, human SEZ6L on cells (293-SEZ6L). Briefly: flow cytometry on live 293-SEZ6L cells, Alexa Fluor 488 anti-human IgG secondary [continued), panel K].
The target of test [6] is T4, human SEZ6 on cells (293-SEZ6). Briefly: flow cytometry on live 293-SEZ6 cells, Alexa Fluor 488 anti-human IgG secondary [continued), panel K].
Test [7] shares this target. Briefly: flow cytometry on live 293-SEZ6 cells, Alexa Fluor 488 anti-human IgG secondary [panel D].
Test [8] deals with T1, human SEZ6L on cells (293-SEZ6L). Briefly: flow cytometry on live 293-SEZ6L cells, Alexa Fluor 488 anti-human IgG secondary [panel D].
The target is the same in test [9]. The experiment in a line: flow cytometry on live 293-SEZ6L cells, Alexa Fluor 488 anti-human IgG secondary [panel B].
Test [10] deals with T5, human SEZ6L2 on cells (293-SEZ6L2, HEK 293 cells transfected with human SEZ6L2, and SEZ6L2-expressing tumor … (human, UniProt Q6UXD5 28-910)).
T5 construct: Tumor cell lines express the endogenous protein; also called hSEZ6L2
T5 sequence (Q6UXD5 28-910): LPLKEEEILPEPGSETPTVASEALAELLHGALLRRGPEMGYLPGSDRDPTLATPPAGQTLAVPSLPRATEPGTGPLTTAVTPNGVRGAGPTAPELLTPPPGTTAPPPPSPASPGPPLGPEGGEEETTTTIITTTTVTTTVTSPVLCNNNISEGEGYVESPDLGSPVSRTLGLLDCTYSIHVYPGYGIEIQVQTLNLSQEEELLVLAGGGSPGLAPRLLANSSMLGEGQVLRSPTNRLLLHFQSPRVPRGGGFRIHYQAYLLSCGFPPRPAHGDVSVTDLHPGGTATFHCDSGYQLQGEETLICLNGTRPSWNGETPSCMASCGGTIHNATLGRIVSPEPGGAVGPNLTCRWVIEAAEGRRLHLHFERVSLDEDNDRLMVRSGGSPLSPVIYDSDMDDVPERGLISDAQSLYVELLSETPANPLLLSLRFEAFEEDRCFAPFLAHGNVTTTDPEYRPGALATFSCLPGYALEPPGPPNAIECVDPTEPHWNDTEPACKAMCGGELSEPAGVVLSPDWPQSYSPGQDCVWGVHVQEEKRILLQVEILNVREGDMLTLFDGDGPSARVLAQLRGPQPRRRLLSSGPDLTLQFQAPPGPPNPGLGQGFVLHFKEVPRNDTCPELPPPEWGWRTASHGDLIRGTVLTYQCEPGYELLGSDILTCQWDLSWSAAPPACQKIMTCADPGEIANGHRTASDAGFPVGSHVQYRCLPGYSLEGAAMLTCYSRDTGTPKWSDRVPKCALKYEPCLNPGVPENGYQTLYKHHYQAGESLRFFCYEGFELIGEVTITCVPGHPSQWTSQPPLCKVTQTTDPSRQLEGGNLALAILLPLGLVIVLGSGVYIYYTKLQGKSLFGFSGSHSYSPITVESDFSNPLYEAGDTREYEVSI
Briefly: flow cytometry on live 293-SEZ6L2 cells, primary antibody 1 ug/ml, Alexa Fluor 488 anti-human IgG secondary [panel B].

The target of test [11] is T4, human SEZ6 on cells (293-SEZ6). The experiment in a line: flow cytometry on live 293-SEZ6 cells, Alexa Fluor 488 anti-human IgG secondary [panel B].
The target in test [12] is T1, human SEZ6L on cells (293-SEZ6L). Briefly: flow cytometry on live 293-SEZ6L cells, Alexa Fluor 488 anti-human IgG secondary [panel C].
Test [13] has as its target T4, human SEZ6 on cells (293-SEZ6). The experiment in a line: flow cytometry on live 293-SEZ6 cells, Alexa Fluor 488 anti-human IgG secondary [panel C].
The target in test [14] is T1, human SEZ6L on cells (293-SEZ6L). Briefly: flow cytometry on live 293-SEZ6L cells, Alexa Fluor 488 anti-human IgG secondary [continued), panel J].
For test [15], the target named is T4, human SEZ6 on cells (293-SEZ6). Briefly: flow cytometry on live 293-SEZ6 cells, Alexa Fluor 488 anti-human IgG secondary [continued), panel J].
For test [16] the target is unchanged. Briefly: flow cytometry on live 293-SEZ6 cells, Alexa Fluor 488 anti-human IgG secondary [continued), panel E].
Test [17] deals with T1, human SEZ6L on cells (293-SEZ6L). Briefly: flow cytometry on live 293-SEZ6L cells, Alexa Fluor 488 anti-human IgG secondary [continued), panel E].

B1: humanized anti-SEZ6L2 antibody 20C4 (antibody, human IgG1, V domains shown)
VH: EVQLVESGGGLVQPGGSLRLSCAASGFTFTDYYMSWVRQAPGKGLEWVALIRNKANGYTTEYSASVKGRFTISRDNSKNSLYLQMNSLRAEDTAVYYCARNGLYGLFAYWGQGTLVTVSS
VL: DIVMTQTPLSIPVTPGEPASISCRSSTSLLESSGKHRLYWYLQKPGQSPQLLIYYMSNLASGVPDRFSGSGSGTDFTLKISRVEAEDFGVYYCMQSLEYPLTFGAGTKVEIKR
notes: also called 20C4:red
In general, Kd refers to the concentration at which binding is half-saturated. Turning to B1, the binding result in [1] and in test [4] was “no binding (tested: 1 ug/ml)” throughout. Moreover, the Kd in test [2] and in test [3] was 3 nM in each case.

B2: humanized anti-SEZ6L2 antibody 16H8 (antibody, human IgG1, V domains shown)
VH: QIQLVQPGAEVKKPGASVKVSCKASGYTFTSYWMYWVRQAPGQGLEWMGAIYPRDSDTSYNQKFKGRVTMTRVTSTSTVYMELSSLRSEDTAVYYCTRGDYYYGSSYYAMDYWGQGTTVTVSS
VL: DIVMTQSPLSLPVTPGEPASISCSSSKSLLHSNGITYLYWYLQKPGQSPQLLIYRMSNLASGVPDRFSGSGSGTDFTLKISRVEAEDVGVYYCAQMLERPYTFGQGTKVEIKR
notes: Humanized from mu16H8; also called 16H8:A3F5
With B2, the binding result in test [5] and in test [6] was “no binding (tested: 1 ug/ml)” in each case. In addition, the Kd in test [3] amounted to 2 nM.

B3: human anti-SEZ6L2 antibody 3A2 (antibody, V domains shown)
VH: QVQLQESGPGLVKPSGTLSLTCAVSGGSISSYHWWSWVRQPPGKGLEWIGEIYHSGSTNYNPSLKSRVTISVDKSKNQFSLKLSSVTAADTAVYYCARWGRIAVADYWGQGTLVTVSS
VL: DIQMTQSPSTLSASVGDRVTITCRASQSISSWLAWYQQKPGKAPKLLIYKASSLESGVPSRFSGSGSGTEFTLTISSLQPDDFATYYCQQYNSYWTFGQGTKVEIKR
notes: Fully human antibody from H2L2 mice
Turning to B3, the binding result in [7] and in test [8] was “no binding (tested: 1 ug/ml)” each time. Moreover, the Kd in test [2] and in test [3] was 3 nM throughout.

B4: human anti-SEZ6L2 antibody 1C6 (antibody, V domains shown)
VH: QVQLQESGPGLVKPSETLSLTCTVSGGSISSYYWSWIRQPPGKGLEWIGYIYNSGSTNYNPSLKSRVTISVDTSKNQFSLKLSSVTAADTAVYYCARRGDQGYWYFDLWGRGTLVTVSS
VL: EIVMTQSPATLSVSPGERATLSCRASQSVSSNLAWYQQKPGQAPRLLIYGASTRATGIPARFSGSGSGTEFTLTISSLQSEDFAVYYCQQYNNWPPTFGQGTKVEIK
notes: also called 106
With B4, the binding result was “no binding (tested: 1 ug/ml)” in [9], “binds” in test [10] and “no binding (tested: 1 ug/ml)” in test [11].

B5: human anti-SEZ6L2 antibody 3A1 (antibody, V domains shown)
VH: QVQLVQSGAEVKKPGASVKVSCKASGFTFTGYYILWMRQAPGQGLEWMGWINPNNGGTHYAQKFQGRVTMTRDTSISTAYMELSRLRSDDTAVYYCARDSGHDWYFDLWGRGTLVTVSS
VL: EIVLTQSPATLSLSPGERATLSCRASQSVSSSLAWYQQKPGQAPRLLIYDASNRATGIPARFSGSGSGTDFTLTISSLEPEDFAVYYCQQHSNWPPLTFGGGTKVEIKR
notes: Fully human antibody from H2L2 mice; it was captured on Protein A and detected with anti-human IgG
Take B5: the binding result in [12] and in [13] was “no binding (tested: 1 ug/ml)” each time. Further, the Kd in test [2] and in test [3] was 0.3 nM in each case.

B6: humanized anti-SEZ6L2 antibody 3E2 (antibody, human IgG1, V domains shown)
VH: EVQLVESGGGLVQPGGSLKLSCAASGFSFNTITMNWVRQASGKGLEWVGRIRSKSNNYATYYADAVKDRFTISRDDSKNTAYLQMNSLKTEDTAVYYCVRGIFSGYVYAMDYWGQGTLVTVSS
VL: DVVMTQSPLSLPVTVGQPASISCRSSQSIVHSNGNTYLEWFQQRPGQSPRVLIYKVSNRFSGVPDRFSGSGSGTDFTLKISRVEAEDVGVYYCFQGSHVPYTFGGGTKLEIKR
notes: also called 3E2:7D4
As for B6, the binding result in test [14] and in test [15] was “no binding (tested: 1 ug/ml)” each time. The Kd in [2] and in [3] was 2 nM in each case.

B7: human anti-SEZ6L2 antibody 3A3 (antibody, V domains shown)
VH: QVQLQESGPGLVKPSGTLSLTCAVSGGSISSSNWWSWVRQPPGKGLEWIGEIYHSGSTNYNPSLKSRVTISVDKSKNQFSLKLSSVTAADTAVYYCAAYSGSYFEYWGQGTLVTVSS
VL: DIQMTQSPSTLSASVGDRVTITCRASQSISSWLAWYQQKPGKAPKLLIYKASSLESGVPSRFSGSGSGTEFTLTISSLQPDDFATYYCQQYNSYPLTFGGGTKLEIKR
notes: as for B3
Consider B7, for which the binding result in test [16] and in test [17] was “no binding (tested: 1 ug/ml)” each time. The Kd in [2] was 26 nM; in test [3], 24 nM.
